Broadly, the Kd is the constant that tells how readily two partners part at equilibrium.

This is an account of results in paper PMC11166458, “Caskin2 is a novel talin- and Abi1-binding protein that promotes cell motility” (Journal of Cell Science, 2024).

This experiment addresses talin-R7/R8 (residues 1358–1653) (mouse, UniProt P26039 1358-1653). As to the kind of experiment: MST; Atto488-labeled peptide at 50–200 nM, serial dilution of recombinant R7R8 talin; 20 mM Tris-HCl pH 7.5, 200 mM NaCl, 1 mM TCEP, 0.05% Tween-20; Monolith NT.115. Particulars: both partners purified.

No end group written: not given here.

B1: Atto488-labeled Caskin2-LD peptide (peptide, UniProt Q8WXE0 1187-1202, looked up)
peptide: STMFDALADQLDAMLD
modifications: also: Atto488 label
notes: Caskin2 C-terminal LD motif peptide; limits 1187–1202 are printed for the Caskin2-LD peptide in the legend of the structure; The text names L1183 as a contact residue of the peptide, which lies outside 1187–1202; source: synthetic peptide (MPIB Core Facility)
Turning to B1, the Kd was around 2700 nM.
